No end group written: not given here.
Tests used:
HeLa cells = assay: Cytotoxicity test with HeLa cells (MTS, CellTiter 96 AQueous One); format: cell-based, human; conditions: 0.5-5-50 μg/ml, 48 h; FIG. 5
Experimental: FIG. 5: Cytotoxicity test carried out with HeLa cells in culture. The assay describes the bioreduction of MTS (Owen's Reagent) produced by enzymes having dehydrogenase activity present in metabolically active cells.
The cytotoxity tests were carried out on HeLa cell lines growing in adhesion. Cell lines were maintained in RPMI 1640 culture medium containing 10% fetal calf serum and 0.1% antibiotics (penicillin, streptomycin and gentamycin); cultivated under humid 5% CO2 atmosphere at 37° C. To carry out the cytotoxicity test, the system CellTiter 96 AQueous One Solution Cell Proliferation Assay by Promega was used. In short, Hela cells were resuspended in a 100 μl volume of medium at a concentration of 10,000 cells/ml, then seeded on 96-well flat bottom plates and left to adhere in incubator at 37° C. for 3 h. Thereafter, Par37 peptide was added at increasing concentrations (0.5-5-50 μg/ml). The plate was incubated at 37° C. in 5% CO2 for further 48 h. Then 20 μl of CellTiter 96 AQueous One Solution reagent were added. Cells were thus incubated for 1 h at 37° C. in a CO2 incubator. The test was carried out in triplicate and compared to a row of blanks containing exclusively culture medium. After incubation, a spectrophotometer reading was carried out, measuring absorbance at 490 nm.

human erythrocytes = assay: Hemolysis test; format: cell-based; conditions: 0.0025-0.025-0.25-2.5-25 mM; 6% erythrocytes; reading at 415 nm; FIG. 6
Experimental: FIG. 6: Hemolysis test with human erythrocytes. The assay is capable of describing possible hemolysis induced after incubation with Par37 peptide at different concentrations. There were used 1×PBS as negative control and 0.1% Triton X100 as positive control. Optical Densities measured at […] indicate hemoglobin release in the medium following cell lysis.
For the hemolysis test, peripheral blood, collected from a donor, in heparin was used. A solution of 6% human erythrocytes was prepared. Erythrocyte concentration was controlled by reading the optical density of an hemolysate of the cell suspension thus made: 0.5 ml blood+7 ml distilled water should give a reading of 0.7 O.D. at the spectrophotometer at 541 nm. Erythrocytes were incubated in triplicate with an increasing concentration of Par37 (0.0025-0.025-0.25-2.5-25 mM) and with 1×PBS as negative control and a 0.1% solution of Triton X100 as positive control. Sample reading was carried out at 415 nm.

[1] = system: heparinised blood from Pj allergic subjects; assay: Histamine release from blood of Pj allergic patients; format: cell-based, human; conditions: 0.0001 to 1 μg/ml; Pj allergic subjects n=5; FIG. 9
Experimental: FIG. 9: Testing of histamine release from blood of Pj allergic patients. The antigens used were: rParj1 (line with squares, denominated Pj1) and the Par37 peptide (line with triangles). On the x-axis the amounts of protein used, and on the y-axis the percentage of histamine released with respect to the percentage of total histamine present in the patient's mastocytes are reported.
The histamine release assay was carried out by using heparinised blood from Pj allergic subjects (n=5) and an allergen concentration scale ranging from 0.0001 and 1 μg/ml. Release protocol was carried out as previously described (Colombo, P., et al., Identification of an immunodominant IgE epitope of the Parietaria Judaica major allergen. J. Immunol, 1998. 160(6): p. 2780-5). The data reported in FIG. 9 show the percentage of release obtained after stimulation with Parj1 allergen.

[2] = system: LPS (Escherichia coli, serotype 026:B6); format: binding
[3] = system: PBMC from Pj allergic patients and non-allergic subjects; assay: PBMC proliferation (Cell Proliferation ELISA, BrdU); format: cell-based, human; conditions: 0.1, 1 and 10 μg/ml, 5 days; 3 Pj allergic patients and 3 non-allergic subjects; FIG. 7
Experimental: FIG. 7: Analysis of PBMC proliferation of 3 Pj allergic patients and 3 healthy subjects. Stimulation was conducted by adding to the culture medium rParj1 and Par37 synthetic peptide at a concentration of 0.1, 1 and 10 μg/ml. Numerical values on the y-axis indicate proliferation indexes with respect to the unstimulated sample. White histograms identify PBMC stimulated by Parj1, black histograms identify PBMC stimulated by Par37 peptide. Horizontal bars indicate significance values (values above the bar indicate a positive stimulation; values below the bar indicate absence of proliferation).
PBMC from Pj allergic patients (n=3) and non-allergic subjects (n=3) were purified by Ficoll gradient and resuspended in complete RPMI (10% AB serum). Cells were stimulated 5 days with 0.1, 1 and 10 μg/ml rParj1 and Par37. For the determination of stimulation indexes, cells were treated according to what described in the Cell Proliferation ELISA kit, BrdU (colorimetric) (Roche).

[4] = system: PBMC of non-allergic subjects; assay: ELISA of IFN-γ release from PBMC stimulated with the antigen itself; conditions: 1 and 10 μg/ml; healthy subjects n=4; FIG. 8
Experimental: Black bars indicate the values of the unstimulated sample (negative control), checkered bars the values of cells stimulated by rParj1.01, white bars the values obtained from cells stimulated by Par37 peptide.
(IFN-γ) cytokine production in supernatants after stimulation with the various antigens was evaluated by ELISA, using commercial kits and following the manufacturers' (GE healthcare, IFNg, Human, Biotrak) instructions.

## LPVSLRHGPVTGPSDPAHKARLERPQIRVPPPAPEKA [Par37]
HeLa cells
  toxic effect on HeLa cells (MTS bioreduction, absorbance 490 nm): no toxic effect
Human erythrocytes
  hemolytic effect on human erythrocytes: no hemolytic effect
[1]
  histamine release (anaphylactic activity): no histamine release is observed

B1: QETCGTMVRALMPCLPFVQGKEKEPSKGCCSGAKRLDGETKTGPQRVHACECIQTAMKTYSDIDGKLVSEVPKHCGIVDSKLPPIDVNMDCKTVGVVPRQPQLPVSLRHGPVTGPSDPAHKARLERPQIRVPPPAPEKA (protein)
chain: QETCGTMVRALMPCLPFVQGKEKEPSKGCCSGAKRLDGETKTGPQRVHACECIQTAMKTYSDIDGKLVSEVPKHCGIVDSKLPPIDVNMDCKTVGVVPRQPQLPVSLRHGPVTGPSDPAHKARLERPQIRVPPPAPEKA
notes: Recombinant isoform of Parietaria judaica major allergen Parj1, 139 aa, containing the Par37 region
[2]; FIG. 3, native isoforms of Parj1
  LPS-binding capability: has the LPS-binding capability
[2]; eluate of HisTrap column loaded with 100 μg protein, then 100 μg LPS, LAL sensitivity 0.12 EU
  lowest dilution with positive reaction to the endotoxin in the LAL test (endpoint): 1/256
[3]
  cell proliferation (lymphoproliferative activity) of PBMC: capable of inducing cell proliferation in all allergic patients
[4]
  IFN-γ release from PBMC induced by the antigen itself: impressive secretion of cytokine
